# T1: M. tb ParB with C-terminal 6xHis-tag (M. tuberculosis, UniProt P9WIJ9 1-344)
# T1 construct: not shown: 6xHis, C-terminal, kept
# T1 sequence: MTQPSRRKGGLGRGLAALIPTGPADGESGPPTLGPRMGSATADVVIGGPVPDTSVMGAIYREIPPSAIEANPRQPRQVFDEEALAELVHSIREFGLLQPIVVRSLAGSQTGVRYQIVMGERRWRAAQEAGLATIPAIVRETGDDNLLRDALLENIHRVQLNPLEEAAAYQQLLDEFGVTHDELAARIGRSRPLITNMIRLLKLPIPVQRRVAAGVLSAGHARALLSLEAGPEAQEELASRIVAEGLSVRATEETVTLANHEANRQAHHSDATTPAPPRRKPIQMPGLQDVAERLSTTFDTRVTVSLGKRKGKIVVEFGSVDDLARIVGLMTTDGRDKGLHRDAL
# B1: GST-Rv1708 (natural protein)
# chain: MPAGLPGQASVAVRLSCDVPPDARHHEPRPGMTDHPDTGNGIGLTGRPPRAIPDPAPRSSHGPAKVIAMCNQKGGVGKTTSTINLGAALGEYGRRVLLVDMDPQGALSAGLGVPHYELDKTIHNVLVEPRVSIDDVLIHSRVKNMDLVPSNIDLSAAEIQLVNEVGREQTLARALYPVLDRYDYVLIDCQPSLGLLTVNGLACTDGVIIPTECEFFSLRGLALLTDTVDKVRDRLNPKLDISGILITRYDPRTVNSREVMARVVERFGDLVFDTVITRTVRFPETSVAGEPITTWAPKSAGALAYRALARELIDRFGM
# notes: also called M. tb minD; not shown: GST, N-terminal, kept
# Target: T1, M. tb ParB with C-terminal 6xHis-tag
# Experiment: pull-down; equimolar bait (GST-Rv1708) and prey (His-tagged) incubated O/N at 4 °C in PBS + 0.1 % Triton X-100, then GSH beads 4 h at 4 °C; washed; Western blot with anti-6xHis
# Settings: both partners purified
binder,measurement,value
B1,binding result,binds

# Reference: publication PMC10482377, “Septum site placement in Mycobacteria – identification and characterisation of mycobacterial homologues of Escherichia coli MinD” (Microbiology, 2023)
